According to patent US20160200782A1 (MOERAE MATRIX, published 2016):

Columns and labels:
Experiment in all cases: cell-based or functional assay
PKG1β(h) = target: T1, PKG1β(h) (human, UniProt Q13976-2 1-686)
T1 sequence (looked up): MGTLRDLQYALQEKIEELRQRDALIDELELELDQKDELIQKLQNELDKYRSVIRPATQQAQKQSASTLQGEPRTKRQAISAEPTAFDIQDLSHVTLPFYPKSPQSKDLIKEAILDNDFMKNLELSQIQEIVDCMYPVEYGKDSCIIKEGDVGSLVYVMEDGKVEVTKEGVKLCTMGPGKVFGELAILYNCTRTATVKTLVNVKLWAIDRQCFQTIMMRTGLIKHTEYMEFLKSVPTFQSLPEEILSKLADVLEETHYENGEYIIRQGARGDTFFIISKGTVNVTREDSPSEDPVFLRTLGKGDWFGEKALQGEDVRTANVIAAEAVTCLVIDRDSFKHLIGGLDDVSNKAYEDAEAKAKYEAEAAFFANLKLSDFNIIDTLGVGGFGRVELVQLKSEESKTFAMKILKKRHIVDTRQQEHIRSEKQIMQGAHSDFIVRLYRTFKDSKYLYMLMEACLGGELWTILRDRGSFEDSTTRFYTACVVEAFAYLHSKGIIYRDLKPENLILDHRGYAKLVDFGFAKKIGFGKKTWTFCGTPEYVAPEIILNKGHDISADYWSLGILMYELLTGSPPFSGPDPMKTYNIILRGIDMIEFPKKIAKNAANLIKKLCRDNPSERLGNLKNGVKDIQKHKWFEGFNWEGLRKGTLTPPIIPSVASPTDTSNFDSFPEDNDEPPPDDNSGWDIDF

DRAK1(h) = target: T2, DRAK1(h) (human, UniProt Q9UEE5 1-414, limits assumed)
T2 sequence (looked up): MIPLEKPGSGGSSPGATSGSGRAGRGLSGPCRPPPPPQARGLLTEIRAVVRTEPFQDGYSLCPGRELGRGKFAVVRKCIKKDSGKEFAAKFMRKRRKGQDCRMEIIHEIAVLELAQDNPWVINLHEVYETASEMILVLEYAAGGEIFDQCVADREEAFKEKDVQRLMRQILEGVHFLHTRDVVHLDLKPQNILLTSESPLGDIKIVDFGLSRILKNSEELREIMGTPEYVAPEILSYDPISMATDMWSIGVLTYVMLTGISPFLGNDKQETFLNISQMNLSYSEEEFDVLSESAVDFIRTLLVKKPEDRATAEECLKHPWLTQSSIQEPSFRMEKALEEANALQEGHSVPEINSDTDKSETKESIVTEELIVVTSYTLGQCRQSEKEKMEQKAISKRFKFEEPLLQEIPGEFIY

PAK2(h) = PAK2(h) (human, UniProt Q13177 1-524, limits assumed)
FGFR4(h) = FGFR4(h) (human, UniProt P22455 460-802, limits assumed)
Ron(h) = target: T3, Ron(h) (human, UniProt Q04912 983-1400, limits assumed)
T3 sequence (looked up): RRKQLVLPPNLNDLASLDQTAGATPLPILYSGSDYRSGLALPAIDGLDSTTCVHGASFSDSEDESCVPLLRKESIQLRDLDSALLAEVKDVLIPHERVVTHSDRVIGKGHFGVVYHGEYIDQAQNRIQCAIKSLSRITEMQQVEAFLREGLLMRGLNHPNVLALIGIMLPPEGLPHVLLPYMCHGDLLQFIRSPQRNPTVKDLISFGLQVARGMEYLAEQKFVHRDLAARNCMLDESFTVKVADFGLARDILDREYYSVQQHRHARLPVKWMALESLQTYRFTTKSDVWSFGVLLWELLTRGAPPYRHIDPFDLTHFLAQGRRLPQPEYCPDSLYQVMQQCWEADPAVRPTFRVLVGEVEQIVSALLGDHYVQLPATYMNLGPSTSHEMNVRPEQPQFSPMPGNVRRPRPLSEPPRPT

CDK6/cyclinD3(h) = CDK6/cyclinD3(h) (human, UniProt Q00534 1-326; P30281 1-292)
EphA2(h) = target: T4, EphA2(h) (human, UniProt P29317 559-976, limits assumed)
T4 sequence (looked up): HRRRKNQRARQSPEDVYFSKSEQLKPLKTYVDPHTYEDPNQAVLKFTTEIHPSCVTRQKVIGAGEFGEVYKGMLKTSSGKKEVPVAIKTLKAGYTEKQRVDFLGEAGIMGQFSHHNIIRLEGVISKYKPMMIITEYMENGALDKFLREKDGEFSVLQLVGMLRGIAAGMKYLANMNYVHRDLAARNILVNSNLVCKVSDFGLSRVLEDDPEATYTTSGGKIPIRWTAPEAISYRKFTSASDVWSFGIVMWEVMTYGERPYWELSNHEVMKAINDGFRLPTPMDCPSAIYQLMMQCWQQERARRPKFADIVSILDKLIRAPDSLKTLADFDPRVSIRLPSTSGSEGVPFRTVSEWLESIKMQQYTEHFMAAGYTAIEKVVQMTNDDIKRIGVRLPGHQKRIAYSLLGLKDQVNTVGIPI

TrkA(h) = TrkA(h) (human, UniProt P04629 441-796, limits assumed)
NEK2(h) = target: T5, NEK2(h) (human, UniProt P51955 1-445, limits assumed)
T5 sequence (looked up): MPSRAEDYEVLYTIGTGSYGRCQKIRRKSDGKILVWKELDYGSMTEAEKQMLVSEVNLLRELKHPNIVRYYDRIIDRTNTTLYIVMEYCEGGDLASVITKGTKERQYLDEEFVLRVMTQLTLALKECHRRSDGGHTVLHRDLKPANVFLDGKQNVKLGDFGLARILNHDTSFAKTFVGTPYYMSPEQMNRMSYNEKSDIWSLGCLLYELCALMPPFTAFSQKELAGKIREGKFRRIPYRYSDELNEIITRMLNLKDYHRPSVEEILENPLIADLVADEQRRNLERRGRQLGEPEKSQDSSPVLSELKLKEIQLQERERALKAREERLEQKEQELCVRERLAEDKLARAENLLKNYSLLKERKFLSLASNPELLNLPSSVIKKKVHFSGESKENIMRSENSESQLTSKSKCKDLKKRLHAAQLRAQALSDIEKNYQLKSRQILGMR

NEK6(h) = NEK6(h) (human, UniProt Q9HC98 1-313)
NEK6(h), sequence (Q9HC98 whole entry): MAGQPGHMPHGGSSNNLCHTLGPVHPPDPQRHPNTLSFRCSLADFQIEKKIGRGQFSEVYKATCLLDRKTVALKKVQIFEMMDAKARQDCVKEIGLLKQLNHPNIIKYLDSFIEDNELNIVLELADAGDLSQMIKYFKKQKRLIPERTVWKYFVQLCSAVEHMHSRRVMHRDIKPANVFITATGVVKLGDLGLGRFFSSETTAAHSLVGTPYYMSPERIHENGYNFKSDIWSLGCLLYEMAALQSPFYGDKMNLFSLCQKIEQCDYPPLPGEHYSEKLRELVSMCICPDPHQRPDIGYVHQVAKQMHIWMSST

CDK6/cyclinD3(h), sequence (Q00534 whole entry, chain 1 of 2): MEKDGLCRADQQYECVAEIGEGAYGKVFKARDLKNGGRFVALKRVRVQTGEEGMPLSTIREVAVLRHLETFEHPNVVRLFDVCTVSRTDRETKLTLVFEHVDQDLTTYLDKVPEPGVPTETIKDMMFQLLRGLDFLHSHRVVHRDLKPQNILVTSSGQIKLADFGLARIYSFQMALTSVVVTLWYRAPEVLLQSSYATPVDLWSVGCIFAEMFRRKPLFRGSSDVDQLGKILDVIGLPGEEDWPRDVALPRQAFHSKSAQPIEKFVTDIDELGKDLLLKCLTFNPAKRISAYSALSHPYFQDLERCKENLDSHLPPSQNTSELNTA
CDK6/cyclinD3(h), sequence (P30281 whole entry, chain 2 of 2): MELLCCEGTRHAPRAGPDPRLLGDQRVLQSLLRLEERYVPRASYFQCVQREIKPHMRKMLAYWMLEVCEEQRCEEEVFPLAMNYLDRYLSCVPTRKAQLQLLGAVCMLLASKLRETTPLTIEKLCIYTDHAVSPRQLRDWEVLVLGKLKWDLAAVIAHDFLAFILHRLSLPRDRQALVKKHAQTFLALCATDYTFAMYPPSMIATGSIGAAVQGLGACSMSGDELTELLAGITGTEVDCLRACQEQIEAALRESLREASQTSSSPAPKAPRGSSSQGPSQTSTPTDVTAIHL
TrkA(h), sequence (P04629 441-796 limits assumed): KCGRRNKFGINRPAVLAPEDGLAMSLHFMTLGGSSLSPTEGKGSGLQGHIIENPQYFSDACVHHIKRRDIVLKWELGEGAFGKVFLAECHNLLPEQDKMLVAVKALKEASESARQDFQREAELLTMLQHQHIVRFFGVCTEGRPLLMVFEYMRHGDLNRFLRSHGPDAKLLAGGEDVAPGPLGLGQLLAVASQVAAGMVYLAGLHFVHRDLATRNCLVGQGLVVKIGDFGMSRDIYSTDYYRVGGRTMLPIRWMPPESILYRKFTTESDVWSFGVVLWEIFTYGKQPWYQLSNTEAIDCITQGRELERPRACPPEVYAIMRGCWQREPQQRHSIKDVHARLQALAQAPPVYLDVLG
FGFR4(h), sequence (P22455 460-802 limits assumed): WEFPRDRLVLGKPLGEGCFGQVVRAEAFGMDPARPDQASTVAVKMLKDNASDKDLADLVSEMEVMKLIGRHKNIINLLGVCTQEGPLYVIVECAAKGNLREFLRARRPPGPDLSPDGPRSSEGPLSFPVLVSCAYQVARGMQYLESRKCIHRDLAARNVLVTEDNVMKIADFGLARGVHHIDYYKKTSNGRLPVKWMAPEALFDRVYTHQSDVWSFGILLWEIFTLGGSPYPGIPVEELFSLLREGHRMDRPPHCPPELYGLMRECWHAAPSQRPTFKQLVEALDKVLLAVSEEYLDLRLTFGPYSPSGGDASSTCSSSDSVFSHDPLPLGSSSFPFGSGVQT
PAK2(h), sequence (Q13177 whole entry): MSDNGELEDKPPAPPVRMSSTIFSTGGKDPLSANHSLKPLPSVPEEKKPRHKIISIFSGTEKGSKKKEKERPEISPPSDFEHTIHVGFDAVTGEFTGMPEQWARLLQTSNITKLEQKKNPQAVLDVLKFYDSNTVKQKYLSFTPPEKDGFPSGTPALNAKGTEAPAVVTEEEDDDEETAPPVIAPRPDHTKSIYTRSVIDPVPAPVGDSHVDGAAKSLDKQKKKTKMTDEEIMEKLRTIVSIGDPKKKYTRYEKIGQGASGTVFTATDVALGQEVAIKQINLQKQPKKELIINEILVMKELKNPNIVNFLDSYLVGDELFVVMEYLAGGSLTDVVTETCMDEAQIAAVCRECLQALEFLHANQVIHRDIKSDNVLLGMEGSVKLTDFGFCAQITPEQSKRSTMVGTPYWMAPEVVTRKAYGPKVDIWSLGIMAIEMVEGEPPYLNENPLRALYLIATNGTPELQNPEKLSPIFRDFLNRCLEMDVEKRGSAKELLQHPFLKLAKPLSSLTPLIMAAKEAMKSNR

| Binder | % activity (PKG1β(h)) | % activity (DRAK1(h)) | % activity (PAK2(h)) | % activity (FGFR4(h)) | % activity (Ron(h)) | % activity (CDK6/cyclinD3(h)) | % activity (EphA2(h)) | % activity (TrkA(h)) | % activity (NEK2(h)) | % activity (NEK6(h)) |
| --- | --- | --- | --- | --- | --- | --- | --- | --- | --- | --- |
| FAKLAARLYRKALARQLGVAA [MMI-0300] | 50% | 14% | 65% | 28% | 93% | 86% | 31% | 25% | 78% | 82% |
| KAFAKLAARLYRKALARQLGVAA [MMI-0400] | 53% | 14% | 59% | 19% | 79% | 85% | 17% | 17% | 61% | 85% |
